Tests used:
Assay in all cases: cell-based or functional assay
[1] = target: MMP9 (human, UniProt P14780 107-707, limits assumed)
[2] = target: T1, MMP1 (human, UniProt P03956 100-469, limits assumed)
T1 sequence (looked up): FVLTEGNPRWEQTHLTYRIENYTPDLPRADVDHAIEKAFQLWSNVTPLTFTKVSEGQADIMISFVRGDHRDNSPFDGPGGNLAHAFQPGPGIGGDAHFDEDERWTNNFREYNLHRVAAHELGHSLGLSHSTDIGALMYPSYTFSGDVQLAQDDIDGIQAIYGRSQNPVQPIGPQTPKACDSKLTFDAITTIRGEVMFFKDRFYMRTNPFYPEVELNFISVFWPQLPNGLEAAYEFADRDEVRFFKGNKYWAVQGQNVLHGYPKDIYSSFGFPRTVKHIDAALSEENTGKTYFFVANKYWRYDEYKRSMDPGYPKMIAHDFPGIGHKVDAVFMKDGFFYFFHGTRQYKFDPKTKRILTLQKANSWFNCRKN

[3] = target: T2, MMP2 (human, UniProt P08253 110-660, limits assumed)
T2 sequence (looked up): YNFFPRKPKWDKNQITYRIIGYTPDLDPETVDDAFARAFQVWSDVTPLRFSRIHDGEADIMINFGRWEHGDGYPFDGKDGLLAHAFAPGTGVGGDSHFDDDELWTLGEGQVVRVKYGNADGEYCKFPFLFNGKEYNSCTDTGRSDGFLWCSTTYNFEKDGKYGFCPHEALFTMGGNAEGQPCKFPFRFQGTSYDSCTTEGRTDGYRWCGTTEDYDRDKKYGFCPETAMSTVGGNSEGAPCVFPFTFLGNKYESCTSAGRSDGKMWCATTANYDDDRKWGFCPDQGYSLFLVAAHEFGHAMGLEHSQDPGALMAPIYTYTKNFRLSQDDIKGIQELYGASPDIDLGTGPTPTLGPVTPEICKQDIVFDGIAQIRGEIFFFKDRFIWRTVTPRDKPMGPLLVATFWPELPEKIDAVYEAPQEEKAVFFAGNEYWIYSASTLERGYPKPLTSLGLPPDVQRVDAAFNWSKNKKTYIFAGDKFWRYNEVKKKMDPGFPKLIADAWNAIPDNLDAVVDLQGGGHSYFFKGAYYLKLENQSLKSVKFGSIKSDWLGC

[4] = target: T3, ADAMTS5 (human, UniProt Q9UNA0 262-622, limits assumed)
T3 sequence (looked up): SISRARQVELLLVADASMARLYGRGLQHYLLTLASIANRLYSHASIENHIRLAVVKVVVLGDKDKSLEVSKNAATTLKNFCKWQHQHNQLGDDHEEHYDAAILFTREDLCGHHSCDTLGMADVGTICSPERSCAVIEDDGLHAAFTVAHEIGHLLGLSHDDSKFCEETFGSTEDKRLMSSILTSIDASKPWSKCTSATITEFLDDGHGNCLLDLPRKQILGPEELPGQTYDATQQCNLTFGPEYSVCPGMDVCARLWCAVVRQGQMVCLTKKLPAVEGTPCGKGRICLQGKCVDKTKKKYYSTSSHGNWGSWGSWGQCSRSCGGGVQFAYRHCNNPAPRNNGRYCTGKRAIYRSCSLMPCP

[5] = target: Elastase
[6] = target: T4, ADAMTS4 (human, UniProt O75173 213-685, limits assumed)
T4 sequence (looked up): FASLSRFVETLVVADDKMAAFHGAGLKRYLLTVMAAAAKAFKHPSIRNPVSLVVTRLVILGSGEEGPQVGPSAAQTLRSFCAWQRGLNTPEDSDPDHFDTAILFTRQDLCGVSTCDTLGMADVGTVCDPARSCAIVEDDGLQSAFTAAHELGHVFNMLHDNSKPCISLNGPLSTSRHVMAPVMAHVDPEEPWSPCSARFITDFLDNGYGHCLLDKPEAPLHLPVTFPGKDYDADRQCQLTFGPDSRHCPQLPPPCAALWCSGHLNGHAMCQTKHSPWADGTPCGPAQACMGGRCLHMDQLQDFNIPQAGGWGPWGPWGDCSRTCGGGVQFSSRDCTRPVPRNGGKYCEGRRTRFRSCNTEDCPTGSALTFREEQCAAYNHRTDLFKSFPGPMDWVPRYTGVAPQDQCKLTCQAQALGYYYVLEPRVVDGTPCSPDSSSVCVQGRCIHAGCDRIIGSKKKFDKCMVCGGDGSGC

[7] = target: MMP8 (human, UniProt P22894 101-467, limits assumed)
Sequence of MMP8 (P22894 101-467 limits assumed): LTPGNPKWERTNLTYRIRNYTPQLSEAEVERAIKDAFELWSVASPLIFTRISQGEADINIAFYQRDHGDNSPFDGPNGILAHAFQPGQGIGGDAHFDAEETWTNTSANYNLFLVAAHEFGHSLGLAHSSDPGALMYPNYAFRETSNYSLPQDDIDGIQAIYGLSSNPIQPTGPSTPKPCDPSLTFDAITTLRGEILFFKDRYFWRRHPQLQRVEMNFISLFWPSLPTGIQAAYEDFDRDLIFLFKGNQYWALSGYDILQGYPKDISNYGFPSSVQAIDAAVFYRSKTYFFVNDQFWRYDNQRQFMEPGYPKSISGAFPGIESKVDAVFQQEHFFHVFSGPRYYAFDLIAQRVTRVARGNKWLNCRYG

[8] = target: MMP13 (human, UniProt P45452 104-471, limits assumed)
[9] = target: T5, MMP7 (UniProt P09237 95-267, limits assumed)
T5 sequence (looked up): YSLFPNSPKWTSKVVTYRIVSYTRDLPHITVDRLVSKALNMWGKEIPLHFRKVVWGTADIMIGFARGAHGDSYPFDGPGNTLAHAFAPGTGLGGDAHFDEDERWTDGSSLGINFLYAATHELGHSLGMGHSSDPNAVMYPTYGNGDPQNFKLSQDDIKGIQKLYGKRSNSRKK

[10] = target: T6, Cathepsin G (UniProt P08311 21-244)
T6 sequence (looked up): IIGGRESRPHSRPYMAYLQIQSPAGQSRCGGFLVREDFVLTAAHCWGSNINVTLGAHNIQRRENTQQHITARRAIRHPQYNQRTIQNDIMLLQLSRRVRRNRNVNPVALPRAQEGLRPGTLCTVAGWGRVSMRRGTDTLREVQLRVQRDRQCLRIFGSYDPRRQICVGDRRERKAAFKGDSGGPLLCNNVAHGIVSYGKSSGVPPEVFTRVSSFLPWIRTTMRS

[11] = target: MMP3 (human, UniProt P08254 100-477, limits assumed)
Sequence of MMP3 (P08254 100-477 limits assumed): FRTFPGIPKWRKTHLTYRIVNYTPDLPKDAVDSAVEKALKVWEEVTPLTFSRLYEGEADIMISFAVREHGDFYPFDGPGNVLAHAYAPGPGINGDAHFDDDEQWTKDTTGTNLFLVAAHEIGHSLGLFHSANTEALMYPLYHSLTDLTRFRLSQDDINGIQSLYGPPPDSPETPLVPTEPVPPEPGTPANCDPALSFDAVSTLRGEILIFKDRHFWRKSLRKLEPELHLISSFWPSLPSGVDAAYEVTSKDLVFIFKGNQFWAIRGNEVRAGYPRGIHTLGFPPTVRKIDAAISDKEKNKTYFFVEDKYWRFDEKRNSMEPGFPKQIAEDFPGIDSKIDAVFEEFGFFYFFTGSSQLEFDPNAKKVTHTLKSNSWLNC

Sequence of MMP9 (P14780 107-707 limits assumed): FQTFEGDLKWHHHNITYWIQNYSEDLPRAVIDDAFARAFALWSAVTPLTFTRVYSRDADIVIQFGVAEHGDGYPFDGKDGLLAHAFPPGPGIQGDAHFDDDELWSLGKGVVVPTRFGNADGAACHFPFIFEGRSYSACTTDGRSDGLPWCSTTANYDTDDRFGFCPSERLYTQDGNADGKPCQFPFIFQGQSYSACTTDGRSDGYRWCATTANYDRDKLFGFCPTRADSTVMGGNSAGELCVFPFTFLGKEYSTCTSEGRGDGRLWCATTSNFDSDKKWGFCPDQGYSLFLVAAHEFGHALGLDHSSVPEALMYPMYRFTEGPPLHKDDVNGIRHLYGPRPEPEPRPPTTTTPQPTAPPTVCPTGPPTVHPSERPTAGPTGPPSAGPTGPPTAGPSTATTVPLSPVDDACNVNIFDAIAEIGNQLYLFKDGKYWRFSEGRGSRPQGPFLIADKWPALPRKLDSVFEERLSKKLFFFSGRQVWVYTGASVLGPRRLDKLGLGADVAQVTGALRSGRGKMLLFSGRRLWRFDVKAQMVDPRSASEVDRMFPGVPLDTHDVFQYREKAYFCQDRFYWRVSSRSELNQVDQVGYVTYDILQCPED

| Binder | Protease Inhibition (% of WT) [1] | Protease Inhibition (% of WT) [2] | Protease Inhibition (% of WT) [3] | Protease Inhibition (% of WT) [4] | Protease Inhibition (% of WT) [5] | Protease Inhibition (% of WT) [6] | Protease Inhibition (% of WT) [7] | Protease Inhibition (% of WT) [8] | Protease Inhibition (% of WT) [9] | Protease Inhibition (% of WT) [10] | Protease Inhibition (% of WT) [11] |
| --- | --- | --- | --- | --- | --- | --- | --- | --- | --- | --- | --- |
| Variant A2M, bait region SEQ ID NO 30 (other) SVSGKPQYMVLVPSLLHTETTEKGCVLLSYLNETVTVSASLESVRGNRSLFTDLEAENDVLHCVAFAVPKSSSNEEVMFLTVQVKGPTQEFKKRTTVMVKNEDSLVFVQTDKSIYKPGQTVKFRVVSMDENFHPLNELIPLVYIQDPKGNRIAQWQSFQLEGGLKQFSFPLSSEPFQGSYKVVVQKKSGGRTEHPFTVEEFVLPKFEVQVTVPKIITILEEEMNVSVCGLYTYGKPVPGHVTVSICRKYSDASDCHGEDSQAFCEKFSGQLNSHGCFYQQVKTKVFQLKRKEYEMKLHTEAQIQEEGTVVELTGRQSSEITRTITKLSFVKVDSHFRQGIPFFGQVRLVDGKGVPIPNKVIFIRGNEANYYSNATTDEHGLVQFSINTTNVMGTSLTVRVNYKDRSPCYGYQWVSEEHEEAHHTAYLVFSPSKSFVHLEPMSHELPCGHTQTVQAHYILNGGTLLGLKKLSFYYLIMAKGGIVRTGTHGLLVKQEDMKGHFSISIPVKSDIAPVARLLIYAVLPTGDVIGDSAKYDVENCLANKVDLSFSPSQSLPASHAHLRVTAAPQSVCALRAVDQSVLLMKPDAELSASSVYNLLPEKDLTGFPGPLNDQDDEDCINRHNVYINGITYTPVSSTNEKDMYSFLEDMGLKAFTNSKIRKPKMCPQLEQYEMHGPEGEGEGPRYLTAIPENFFGVSEDLVVQISELEGRGSPHTKLRKYFPETWIWDLVVVNSAGVAEVGVTVPDTITEWKAGAFCLSEDAGLGISSTASLRAFQPFFVELTMPYSVIRGEAFTLKATVLNYLPKCIRVSVQLEASPAFLAVPVEKEQAPHCICANGRQTVSWAVTPKSLGNVNFTVSAEALESQELCGTEVPSVPEHGRKDTVIKPLLVEPEGLEKETTFNSLLCPSGGEVSEELSLKLPPNVVEESARASVSVLGDILGSAMQNTQNLLQMPYGCGEQNMVLFAPNIYVLDYLNETQQLTPEIKSKAIGYLNTGYQRQLNYKHYDGSYSTFGERYGRNQGNTWLTAFVLKTFAQARAYIFIDEAHITQALIWLSQRQKDNGCFRSSGSLLNNAIKGGVEDEVTLSAYITIALLEIPLTVTHPVVRNALFCLESAWKTAQEGDHGSHVYTKALLAYAFALAGNQDKRKEVLKSLNEEAVKKDNSVHWERPQKPKAPVGHFYEPQAPSAEVEMTSYVLLAYLTAQPAPTSEDLTSATNIVKWITKQQNAQGGFSSTQDTVVALHALSKYGAATFTRTGKAAQVTIQSSGTFSSKFQVDNNNRLLLQQVSLPELPGEYSMKVTGEGCVYLQTSLKYNILPEKEEFPFALGVQTLPQTCDEPKAHTSFQISLSVSYTGSRSASNMAIVDVKMVSGFIPLKPTVKMLERSNHVSRTEVSSNHVLIYLDKVSNQTLSLFFTVLQDVPVRDLKPAIVKVYDYYETDEFAIAEYNAPCSKDLGNADYKDDDDKGASHHHHHH | 18 % of WT | 67 % of WT | 3 % of WT | 296 % of WT | 55 % of WT | 93 % of WT | 29 % of WT | 96 % of WT | 91 % of WT | 104 % of WT | < 100 % of WT |
| Variant A2M, bait region SEQ ID NO 9 (other) SVSGKPQYMVLVPSLLHTETTEKGCVLLSYLNETVTVSASLESVRGNRSLFTDLEAENDVLHCVAFAVPKSSSNEEVMFLTVQVKGPTQEFKKRTTVMVKNEDSLVFVQTDKSIYKPGQTVKFRVVSMDENFHPLNELIPLVYIQDPKGNRIAQWQSFQLEGGLKQFSFPLSSEPFQGSYKVVVQKKSGGRTEHPFTVEEFVLPKFEVQVTVPKIITILEEEMNVSVCGLYTYGKPVPGHVTVSICRKYSDASDCHGEDSQAFCEKFSGQLNSHGCFYQQVKTKVFQLKRKEYEMKLHTEAQIQEEGTVVELTGRQSSEITRTITKLSFVKVDSHFRQGIPFFGQVRLVDGKGVPIPNKVIFIRGNEANYYSNATTDEHGLVQFSINTTNVMGTSLTVRVNYKDRSPCYGYQWVSEEHEEAHHTAYLVFSPSKSFVHLEPMSHELPCGHTQTVQAHYILNGGTLLGLKKLSFYYLIMAKGGIVRTGTHGLLVKQEDMKGHFSISIPVKSDIAPVARLLIYAVLPTGDVIGDSAKYDVENCLANKVDLSFSPSQSLPASHAHLRVTAAPQSVCALRAVDQSVLLMKPDAELSASSVYNLLPEKDLTGFPGPLNDQDDEDCINRHNVYINGITYTPVSSTNEKDMYSFLEDMGLKAFTNSKIRKPKMCPQLEHGPEGEGEGEGIPENFFGVPRYLSEDLVVQISELEGRGSVEEPHTKLRKYFPETWIWDLVVVNSAGVAEVGVTVPDTITEWKAGAFCLSEDAGLGISSTASLRAFQPFFVELTMPYSVIRGEAFTLKATVLNYLPKCIRVSVQLEASPAFLAVPVEKEQAPHCICANGRQTVSWAVTPKSLGNVNFTVSAEALESQELCGTEVPSVPEHGRKDTVIKPLLVEPEGLEKETTFNSLLCPSGGEVSEELSLKLPPNVVEESARASVSVLGDILGSAMQNTQNLLQMPYGCGEQNMVLFAPNIYVLDYLNETQQLTPEIKSKAIGYLNTGYQRQLNYKHYDGSYSTFGERYGRNQGNTWLTAFVLKTFAQARAYIFIDEAHITQALIWLSQRQKDNGCFRSSGSLLNNAIKGGVEDEVTLSAYITIALLEIPLTVTHPVVRNALFCLESAWKTAQEGDHGSHVYTKALLAYAFALAGNQDKRKEVLKSLNEEAVKKDNSVHWERPQKPKAPVGHFYEPQAPSAEVEMTSYVLLAYLTAQPAPTSEDLTSATNIVKWITKQQNAQGGFSSTQDTVVALHALSKYGAATFTRTGKAAQVTIQSSGTFSSKFQVDNNNRLLLQQVSLPELPGEYSMKVTGEGCVYLQTSLKYNILPEKEEFPFALGVQTLPQTCDEPKAHTSFQISLSVSYTGSRSASNMAIVDVKMVSGFIPLKPTVKMLERSNHVSRTEVSSNHVLIYLDKVSNQTLSLFFTVLQDVPVRDLKPAIVKVYDYYETDEFAIAEYNAPCSKDLGNADYKDDDDKGASHHHHHH | 20 % of WT | 67 % of WT | 27 % of WT | 145 % of WT | 93 % of WT | 124 % of WT | 33 % of WT | 88 % of WT | 80 % of WT | 66 % of WT | 27 % of WT |

— patent publication US20230250154A1 (CYTONICS, published 2023)
